These results are taken from patent US11248246B2, “Beta-glucosidase for producing glucose and laminarioligosaccharide from sea weed” (Korea University Research and Business Foundation, priority 2018, dated 2022).

Bounds are passed on as bounds.

Substrate in data set [1]: OC[C@H]1O[C@@H](OC[C@H]2OC(O)[C@H](O)[C@@H](O)[C@@H]2O)[C@H](O)[C@@H](O)[C@@H]1O
Put plainly: purified protein, by the assay type. The conditions noted are these: other: pH 6, 40° C., substrate 0.1-0.4% (w/v).

Substrate in data set [2]: OC[C@H]1O[C@@H](O[C@H]2[C@H](O)[C@@H](CO)OC(O)[C@@H]2O)[C@H](O)[C@@H](O)[C@@H]1O
Put plainly: purified protein, by the assay type. The conditions noted are these: other: pH 6, 40° C., substrate 0.1-0.4% (w/v).

Substrate in data set [3]: OC[C@H]1O[C@@H](O[C@H]2[C@H](O)[C@@H](O)C(O)O[C@@H]2CO)[C@H](O)[C@@H](O)[C@@H]1O
Put plainly: purified protein, by the assay type. The conditions noted are these: other: pH 6, 40° C., substrate 0.1-0.4% (w/v).

Substrate in data set [4]: OC[C@H]1O[C@@H](O[C@H]2[C@H](O)[C@@H](O)C(O)O[C@@H]2CO)[C@H](O)[C@@H](O)[C@H]1O
Put plainly: purified protein, by the assay type. To be noted: other: pH 6, 40° C., substrate 0.1-0.4% (w/v).

Substrate in data set [5]: OC[C@H]1O[C@@H](O[C@H]2[C@H]3OC[C@@H]2OC(O)[C@H]3O)[C@H](O)[C@@H](O)[C@H]1O
Put plainly: purified protein, by the assay type. To be noted: other: pH 6, 40° C., substrate 0.1-0.4% (w/v).

Data set [6] is described as follows: Optimum pH of Bgl1B protein (relative activity at pH 4.0-9.0). It counts as biochemical. An excerpt: FIG. 2 illustrates the relative activity of Bgl1B at a pH ranging from 4.0 to 9.0. […] The activity was reduced to 30% or less at a pH of 4 and at a pH of 8 or higher.
Data set [7] is described as follows: Optimum temperature of Bgl1B (relative activity at 2° C. to 60° C.). In kind it is biochemical. On the procedure:
FIG. 3 illustrates the relative activity of Bgl1B at a temperature ranging from 2° C. to 60° C. […] An enzymatic activity of approximately 83% was maintained at 20° C. […] In addition, the enzyme can be inactivated with only simple heat treatment.

The nature of data set [8]: Thermal stability of Bgl1B. It counts as physicochemical. From the text: FIG. 4 illustrates the stability with respect to temperature of the enzyme.
Data set [9] is described as follows: Substrate specificity of Bgl1B on disaccharides (TLC). It counts as biochemical. The conditions noted are these: 0.2% (w/v) substrate, 20 mM sodium phosphate buffer (pH 6), 0.6 U of Bgl1B, 1 hour. As for the experimental part:
To confirm the substrate specificity of the Bgl1B protein, each of 0.2% (w/v) of a plurality of disaccharides in a 20 mM sodium phosphate buffer (pH 6) was allowed to react with 0.6 U of Bgl1B for 1 hour.

A short description of data set [10]: Enzymatic reaction rate (Lineweaver-Burk), laminaribiose. In kind it is biochemical. As for the experimental part: To confirm the enzymatic reaction rate of the Bgl1B protein for various substrates, the Bgl1B protein was allowed to react with each substrate at various concentrations of 0.1-0.4% (w/v) at pH 6 and 40° C. Vmax, Km, and kcat, which are parameters related to an enzymatic reaction rate, were determined from the Lineweaver-Burk plot.

A short description of data set [11]: Hydrolysis of laminarin to glucose (HPLC). In kind it is biochemical. To be noted: 3 U of Bgl1B, 0.2% (w/v) of laminarin, 40° C., 24 hours. As for the experimental part:
(§1) Characteristics of the enzymatic reaction of the Bgl1B protein using, as a substrate, laminarin, which is a polysaccharide, were analyzed using high performance liquid chromatography (HPLC) and thin layer chromatography (TLC). HPLC analysis was performed using Agilent 1100 HPLC equipped with a gel permeation and ligand exchange column (KS-802; Shodex) and a refractive index detector, and analysis conditions were a flow rate of 0.5 mL/min, a column temperature of 80° C., and sterile water as a mobile phase. For TLC analysis, 1 μl of a reaction product was loaded onto silica gel 60 plates (Merck), and then developed using a mixed solvent of n-butanol:acetic acid:water (volume ratio of 3:2:2), and treated with 10% (v/v) of sulfuric acid for visualization.

Data set [12] in a line: Transglycosylase activity against laminarin (HPLC, TLC). It counts as biochemical. To be noted: 0.03 U of Bgl1B, 0.2% (w/v) of laminarin, after 24 hours. As for the experimental part: as §1
The nature of data set [13]: Transglycosylase activity against laminaribiose (HPLC, TLC, FIG. 8). The conditions noted are these: 0.002 U of Bgl1B, 0.3% (w/v) of laminarin (so in the source). It counts as biochemical. As for the experimental part: as §1

B1: Saccharophagus degradans 2-40^T β-glucosidase Bgl1B, recombinant (6 histidine residues at C-terminus), SEQ ID NO: 1 (nucleotide SEQ ID NO: 2) (Saccharophagus … (protein)
chain: MNRLTLPPSSRLRSKEFTFGVATSSYQIEGGIDSRLPCNWDTFCEQPNTIIDNTNGAIACDHINRWQDDIELIANLGVDAYRFSIAWGRVINLDGSLNNEGVTFYKNILTKLREKNLKAYITLYHWDLPQHLEDAGGWLNRDTAYKFRDYVNLITQALDDDVFCYTTLNEPFCSAYLGYEIGVHAPGIKDLASGRKAAHHLLLAHGLAMQVLRKNCPNSLSGIVLNMSPCYAGSNAQADIDAAKRADDLLFQWYAQPLLTGCYPDAINSLPDNAKPPICEGDMALISQPLDYLGLNYYTRAVFFADGNGGFTEQVPEGVELTDMGWEVYPQGLTDLLIDLNQRYTLPPLLITENGAAMVDELVNGEVNDIARINYFQTHLQAVHNAIEQGVDVRGYFAWSLMDNFEWALGYSKRFGITYVDYQTQKRTLKASGHAFAEFVSSRS
One may read the Km as the concentration of substrate that gives half-maximal velocity. On to B1, for which the Km in data set [1] was determined as 13 mM; in data set [2], 0.99 mM; in data set [3], 20 mM; in data set [4], 20 mM; in data set [5], 69 mM.

B2: Bgl1B: β-glucosidase having the amino acid sequences of SEQ ID NO: 1, from Saccharophagus degradans 2-40^T, with exo-type glucanase and transglycosylase activities (protein)
chain: B1 chain
modifications: Saccharophagus degradans 2-40T
B2: in [6] (0.1% (w/v) cellobiose, 40° C., 15 minutes, pH 4.0-9.0), the “pH of highest activity” value is given as 6. Besides, the “enzymatic activity at about pH 5 to about pH 7.5” value in data set [6] (about pH 5 to about pH 7.5) is recorded as at least 80%. The “relative activity at a pH of 4” value in data set [6] (pH 4, 0.1% (w/v) cellobiose, 40° C., 15 minutes) was at most 30%. For the same molecule, the “relative activity at a pH of 8 or higher” value in data set [6] (pH 8 or higher, 0.1% (w/v) cellobiose, 40° C., 15 minutes) is recorded as at most 30%. The “enzymatic activity at 50° C. or higher” value in data set [7] (50° C. or higher) is “sharply reduced”. The “enzymatic activity at 2-10° C.” value in [7] (pH 6, 2-10° C.) was at least 58%. Moreover, in data set [7] (pH 6, 10° C. to 40° C.), the “enzymatic activity at pH 6 and 10° C. to 40° C.” value is at least 80%. Further, in data set [7] (pH 6, 20° C.), the “enzymatic activity maintained at 20° C.” value is listed as “approximately 83%”. Moreover, the “temperature of highest enzymatic activity” value in data set [7] (pH 6, range 2° C. to 60° C.) was found to be 40 °C. Also, the “enzymatic activity maintained after heat” value in data set [8] (after reaction at 40° C. for 1 hour) was 80%. Moreover, in data set [8] (after reaction at 50° C. or higher for 1 hour), the “enzymatic activity after heat” value was “almost no activity”. In data set [9], the hydrolysis of agarotriose result is given as “unable to hydrolyze agarotriose”, the “hydrolysis of disaccharides with an α-linkage” value is recorded as “unable to hydrolyze any disaccharide with an α-linkage” and the “hydrolysis of disaccharides with β-linkages” value was “able to hydrolyze all disaccharides with β-linkages”. The “substrate specificity in a collective view of the parameters” value in data set [10] (Table 2 substrates compared) is reported as “highest substrate specificity for laminaribiose”. In addition, the “lower Km compared to Novozyme 188” value in data set [10] (laminaribiose, compared to the commercialized enzyme Novozyme 188) is 2.5 fold. In data set [11], the “production yield of glucose from laminarin” value was 75% and the “products of laminarin degradation (HPLC)” value was “only glucose is produced without the production of oligosaccharides”. Further, the “products at very low enzyme concentration (transglycosylase activity)” value in data set [12] is “oligosaccharides with low degrees of polymerization such as DP2, DP3, and DP4 were produced”. Also, the “product of transglycosylase activity (FIGS. 8A and 8B)” value in [13] is recorded as “production of DP3 was confirmed”.
